Experimental data reported in patent publication US20160185837A1 (Medimmune Limited, priority 2013, published 2016).
Blank lines part the entries; values can stand above or below the molecule they belong to.

What was measured:
Assay type in all cases: cell-based
[1] = target: T1, human GLP-1 receptor (hGLP-1r) (Homo sapiens, UniProt P43220); assay: BSA-cAMP assay, cells expressing human GLP-1 receptor
T1 construct: expressed in transfected cells
Procedure, shortened: (§1)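 EC50 came from an unconstrained 4-parameter logistic fit of HTRF cAMP data expressed as percent of maximal native agonist activation, tested on two occasions. Thawed receptor-expressing cells (hGLP-1r, hGIPr at 0.5×10^5 cells/ml) treated 30 min at room temperature in 0.1% BSA-containing medium; two distinct hGIPr lines.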

[2] = target: T2, human GIP receptor (hGIPr) (Homo sapiens, UniProt P48546); assay: BSA-cAMP assay, cells expressing human GIP receptor
T2 construct: expressed in transfected cells
T2 sequence (P48546 22-466): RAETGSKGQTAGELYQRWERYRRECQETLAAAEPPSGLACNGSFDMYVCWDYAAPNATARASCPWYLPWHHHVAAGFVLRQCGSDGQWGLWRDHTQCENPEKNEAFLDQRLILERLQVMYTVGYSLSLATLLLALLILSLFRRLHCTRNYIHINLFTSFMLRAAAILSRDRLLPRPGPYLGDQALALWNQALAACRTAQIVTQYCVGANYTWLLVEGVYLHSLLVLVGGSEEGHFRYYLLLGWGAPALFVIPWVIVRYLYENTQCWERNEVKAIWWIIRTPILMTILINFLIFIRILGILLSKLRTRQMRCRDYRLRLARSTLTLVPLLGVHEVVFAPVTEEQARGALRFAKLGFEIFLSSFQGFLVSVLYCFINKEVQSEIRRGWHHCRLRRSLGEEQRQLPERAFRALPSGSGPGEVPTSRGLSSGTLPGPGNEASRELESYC
Procedure, shortened: as §1

[3] = target: T3, mouse GIP receptor (mGIPr) (Mus musculus, UniProt Q0P543); assay: BSA-cAMP assay, cells expressing mouse GIP receptor
T3 construct: expressed in transfected cells; host or cells: HEK293s or CHO cells
T3 sequence (Q0P543 19-460): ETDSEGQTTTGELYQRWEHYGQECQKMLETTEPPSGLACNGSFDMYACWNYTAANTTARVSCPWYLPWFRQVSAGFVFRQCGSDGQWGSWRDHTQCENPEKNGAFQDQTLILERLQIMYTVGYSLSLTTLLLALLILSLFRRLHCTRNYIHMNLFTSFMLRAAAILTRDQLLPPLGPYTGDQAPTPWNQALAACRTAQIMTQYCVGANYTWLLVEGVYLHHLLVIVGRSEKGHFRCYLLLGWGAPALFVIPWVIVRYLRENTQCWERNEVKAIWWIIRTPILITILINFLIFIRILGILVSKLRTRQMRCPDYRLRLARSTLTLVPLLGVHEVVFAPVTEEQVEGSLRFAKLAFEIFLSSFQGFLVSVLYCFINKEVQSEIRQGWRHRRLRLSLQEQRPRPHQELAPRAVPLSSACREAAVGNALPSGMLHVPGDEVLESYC
Procedure, shortened: (§2)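 EC50 is the midpoint of an unconstrained 4-parameter logistic fit to HTRF cAMP data, expressed as percent of maximal native agonist response, from two separate occasions. Rodent (mouse, rat) GLP-1R- or GIPR-expressing cells were incubated with compound 30 min at room temperature in 0.1% BSA medium, in duplicate.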

[4] = target: T4, rat GLP-1 receptor (rGLP-1r) (Rattus norvegicus, UniProt P32301); assay: BSA-cAMP assay, cells expressing rat GLP-1 receptor
T4 construct: expressed in transfected cells; host or cells: HEK293s or CHO cells
T4 sequence (P32301 22-463): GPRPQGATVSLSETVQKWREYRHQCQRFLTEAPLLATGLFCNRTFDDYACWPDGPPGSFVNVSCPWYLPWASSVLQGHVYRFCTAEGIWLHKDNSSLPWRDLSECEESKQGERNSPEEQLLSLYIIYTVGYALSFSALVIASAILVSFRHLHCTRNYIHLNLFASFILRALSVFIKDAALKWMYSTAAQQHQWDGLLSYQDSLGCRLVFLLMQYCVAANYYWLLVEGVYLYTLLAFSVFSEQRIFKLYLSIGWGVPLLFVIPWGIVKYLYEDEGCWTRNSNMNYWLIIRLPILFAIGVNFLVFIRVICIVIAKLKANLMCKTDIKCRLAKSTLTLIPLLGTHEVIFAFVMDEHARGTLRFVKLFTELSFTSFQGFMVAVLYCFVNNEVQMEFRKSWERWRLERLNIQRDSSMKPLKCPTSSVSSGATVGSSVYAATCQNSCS
Procedure, shortened: as §2

T1 sequence (P43220 24-463): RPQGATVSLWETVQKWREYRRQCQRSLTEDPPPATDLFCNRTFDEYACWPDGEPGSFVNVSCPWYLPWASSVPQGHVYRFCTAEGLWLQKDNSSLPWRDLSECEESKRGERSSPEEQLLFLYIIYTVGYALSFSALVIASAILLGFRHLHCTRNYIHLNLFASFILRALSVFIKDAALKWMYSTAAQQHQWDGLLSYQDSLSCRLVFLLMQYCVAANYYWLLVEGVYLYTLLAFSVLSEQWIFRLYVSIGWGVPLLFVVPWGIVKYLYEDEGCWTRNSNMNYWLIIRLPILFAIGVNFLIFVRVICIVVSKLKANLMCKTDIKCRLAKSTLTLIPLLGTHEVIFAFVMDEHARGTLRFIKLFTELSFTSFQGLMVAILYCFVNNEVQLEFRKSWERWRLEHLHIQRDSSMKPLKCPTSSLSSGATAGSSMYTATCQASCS

- potency for GLP-1r, in words ([1]; human receptor): high potency
- potency for GIPr, in words ([2]; human receptor): high potencies
- potency for GIPr, in words ([3]; mouse receptor): relatively lower potency
- potency for GLP-1r, in words ([4]; rat receptor): high potency
B1: IP088: Fc fusion, IgG1-TM, SEQ ID NO:105; agonist peptide YSEGTFTSDYSKLLEEEAVRLFIEWLVKGP (SEQ ID NO:15) (protein)
chain: YSEGTFTSDYSKLLEEEAVRLFIEWLVKGPAAAGGSGSTASSGSGSATGGGGAATHTCPPCPAPEF
modifications: also: Fc fusion, IgG1-TM

- EC50 ([1]; Batch 1, BSA-cAMP assay, read-out: hGLP1r cAMP activity EC50): 4.4 nM
- EC50 ([2]; Batch 1, BSA-cAMP assay, read-out: hGIPr cAMP activity EC50): 0.057 nM
- EC50 ([3]; Batch 1, BSA-cAMP assay, read-out: mGIPr cAMP activity EC50): 0.031 nM
- EC50 ([4]; Batch 1, BSA-cAMP assay, read-out: rGLP1r cAMP activity EC50): 8 nM
B2: IP367 (protein)
chain: YSEGTFTSDYRILKERQAIDEFIAWLLKGGAAAGGSGSTASSGSGSATGGGGAATHTCPPC
